The values that follow come from patent US20250325643A1 (Genmab, published 2025).

Substitutions are numbered along the chain they refer to. Names may count otherwise.

Test [1] deals with T1, human CD27 expressed on cells (T cells, transfected HEK293F cells, Daudi cells, NFκB-luc2/CD27 Jurkat … (human, UniProt P26842 20-240)).
T1 construct: also called TNFRSF7
T1 sequence: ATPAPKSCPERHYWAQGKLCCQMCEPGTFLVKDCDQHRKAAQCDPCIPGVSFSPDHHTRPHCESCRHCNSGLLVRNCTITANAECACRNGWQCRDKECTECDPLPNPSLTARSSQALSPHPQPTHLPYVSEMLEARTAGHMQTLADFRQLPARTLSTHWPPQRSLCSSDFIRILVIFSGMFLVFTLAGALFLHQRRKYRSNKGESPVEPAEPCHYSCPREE
The test is described as follows: flow cytometry on T cells in human PBMC, PE-labelled goat anti-human IgG, median MFI PE.

Test [2] deals with T2, cynomolgus monkey CD27 expressed on cells (cynomolgus monkey T cells, transfected HEK293F cells) (cynomolgus monkey, UniProt P26842 20-260 (human entry)).
T2 construct: also called cyno CD27
T2 chain: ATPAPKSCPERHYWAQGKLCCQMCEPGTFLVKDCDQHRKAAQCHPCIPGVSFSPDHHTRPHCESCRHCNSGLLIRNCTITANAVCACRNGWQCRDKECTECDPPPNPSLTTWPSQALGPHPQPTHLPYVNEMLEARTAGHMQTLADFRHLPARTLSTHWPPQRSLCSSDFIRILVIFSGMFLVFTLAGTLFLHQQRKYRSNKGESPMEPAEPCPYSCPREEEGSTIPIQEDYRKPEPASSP
Kind of test: flow cytometry on T cells in cynomolgus monkey PBMC, PE-labelled goat anti-human IgG, median MFI PE. Background: A flow cytometer gives signals particle by particle.

Test [3] concerns the target T3, recombinant His-tagged human FcγRIIb (Sino Biological, Cat #10259-H27H-B) (human, UniProt P31994 43-217).
T3 construct: Bought protein; not shown: His tag
T3 sequence (looked up): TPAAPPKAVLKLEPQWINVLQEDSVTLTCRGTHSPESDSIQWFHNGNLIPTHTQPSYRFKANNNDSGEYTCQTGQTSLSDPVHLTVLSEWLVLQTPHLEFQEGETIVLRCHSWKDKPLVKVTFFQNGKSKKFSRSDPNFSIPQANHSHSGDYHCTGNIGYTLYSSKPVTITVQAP
The test is described as follows: SPR (Biacore): His-tagged FcγRIIb captured on an anti-His chip, antibody injected.

The target in test [4] is T4, recombinant His-tagged human FcγRIIa 167-His (Sino Biological, Cat #10374-H27H) (human, UniProt P12318 34-218).
T4 construct: Bought protein; also called FcγRIIa-H; FcγRIIa (167-His [H]); not shown: His tag
T4 sequence (looked up): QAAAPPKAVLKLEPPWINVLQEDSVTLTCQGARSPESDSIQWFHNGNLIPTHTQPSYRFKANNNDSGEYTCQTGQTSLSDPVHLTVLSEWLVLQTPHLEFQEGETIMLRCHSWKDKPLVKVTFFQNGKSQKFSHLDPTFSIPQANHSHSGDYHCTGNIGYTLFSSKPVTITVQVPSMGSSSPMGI
Kind of test: SPR (Biacore): His-tagged FcγRIIa-H captured on an anti-His chip, antibody injected. A general note: SPR reads the build-up and loss of mass on a sensor chip optically.

The target of test [5] is T5, recombinant His-tagged human FcγRIIa 167-Arg (Sino Biological, Cat #10374-H27H1-B) (human, UniProt P12318 34-218).
T5 construct: Bought protein; also called FcγRIIa-R; FcγRIIa (167-Arg [R]); not shown: His tag
T5 sequence (looked up): T4 sequence (looked up) with H134R
The test is described as follows: SPR (Biacore): His-tagged FcγRIIa-R captured on an anti-His chip, antibody injected.

The target of test [6] is T6, recombinant His-tagged human FcγRIIIa 176-Phe (Sino Biological, Cat #10389-H27H-B) (human, UniProt P08637 17-208).
T6 construct: Bought protein; also called FcγRIIIa-F; FcγRIIIa (176-Phe [F]); not shown: His tag
The test is described as follows: SPR (Biacore): His-tagged FcγRIIIa-F captured on an anti-His chip, antibody injected.

Test [7] deals with T7, recombinant His-tagged human FcγRIIIa 176-Val (Sino Biological, Cat #10389-H27H1-B) (human, UniProt P08637 17-208).
T7 construct: Bought protein; also called FcγRIIIa-V; FcγRIIIa (176-Val [V]); not shown: His tag
The test is described as follows: SPR (Biacore): His-tagged FcγRIIIa-V captured on an anti-His chip, antibody injected.

Test [8] deals with T1, human CD27 expressed on cells (T cells, …). The test is described as follows: flow cytometry on CD4+ T cells in human PBMC, FITC-conjugated goat anti-human IgG F(ab')2, median FITC. As to the method:
(§1) Binding of IgG1-CD27-A-P329R-E345R to CD27 on human healthy donor T cells was characterized in more detail using flow cytometry. Anti-HIV gp120 antibody variant IgG1-b12-P329R-E345R was used as non-binding control antibody (ctrl). Human PBMCs were isolated from buffy coats obtained from human healthy donors. PBMCs (1×10⁵ cells/well) in FACS buffer were added to polystyrene 96-well round-bottom plates (Greiner bio-one, Cat #650101) and pelleted by centrifugation at 300×g for 3 min at 4° C. The cells were resuspended in 50 μL/well serial antibody dilutions in FACS buffer (range 0.0015 to 10 μg/mL in 3-fold dilution steps) and incubated for 30 min at 4° C. Cells were pelleted, washed twice with FACS buffer and incubated in 50 μL/well with FITC-conjugated secondary antibody (FITC AffiniPure F(ab′)₂ fragment goat anti-human IgG, F(ab′)₂ fragment specific, Jackson ImmunoResearch, Cat #109-096-097, diluted 1:100) for 30 min at 4° C. in the dark. […] The samples were measured by flow cytometry on an LSRFortessa (BD) flow cytometer and analyzed using FlowJo software. Binding curves were analyzed using non-linear regression (sigmoidal dose-response with variable slope) using GraphPad Prism 8 software.

Test [9] has the same target. The test is described as follows: flow cytometry on CD8+ T cells in human PBMC, FITC-conjugated goat anti-human IgG F(ab')2, median FITC. As to the method:
as §1

Test [10] has as its target T8, recombinant His-tagged human FcγRIa (Sino Biological, Cat #10256-H08S-B) (human, UniProt P12314 16-288).
T8 construct: Bought protein; not shown: His tag
The test is described as follows: SPR (Biacore): His-tagged FcγRIa captured on an anti-His chip, antibody injected; resonance units against antibody concentration. As to the method:
Binding of IgG1-CD27-A-P329R-E345R to human FcγR variants was analyzed using a Biacore surface plasmon resonance (SPR) system and compared to an anti-HIV gp120 antibody IgG1-b12 (ctrl). Biacore Series S Sensor Chips CM5 (Cytiva, Cat #29104988) were covalently coated with anti-His antibody using amine-coupling and His capture kits (Cytiva, Cat #BR100050 and Cat #29234602) according to the manufacturer's instructions. […] After three cycles of buffer, antibody samples were injected for 36 cycles to generate binding curves using antibody ranges of 0-3,000 nM for FcγRI and 0-10,000 nM for the other FcγRs. Each sample that was analyzed on an FcR-coated surface (Active Surface) was also analyzed on a parallel flow-cell without FcR (Reference Surface), which was used for background correction. Dissociation from the anti-His-coated surface was performed by regeneration of the surface using 10 mM Glycine-HCl pH 1.5 (Cytiva, Cat #BR100354). Sensograms were generated using Biacore Insight Evaluation software (Cytiva) and a four-parameter logistic (4PL) fit was applied to calculate relative binding of IgG1-CD27-A-P329R-E345R against the reference sample (ctrl).

The target of test [11] is T9, human C1q (from normal human serum) (human, UniProt P02745 23-245; P02746 28-253; P02747 29-245).
T9 construct: 20% normal human serum was the source of C1q
Kind of test: flow cytometry: human T cells opsonised with the antibody, 20% normal human serum as source of C1q, FITC-labelled rabbit anti-human C1q.

T8 sequence (P12314 16-288 limits assumed, stated change not applied): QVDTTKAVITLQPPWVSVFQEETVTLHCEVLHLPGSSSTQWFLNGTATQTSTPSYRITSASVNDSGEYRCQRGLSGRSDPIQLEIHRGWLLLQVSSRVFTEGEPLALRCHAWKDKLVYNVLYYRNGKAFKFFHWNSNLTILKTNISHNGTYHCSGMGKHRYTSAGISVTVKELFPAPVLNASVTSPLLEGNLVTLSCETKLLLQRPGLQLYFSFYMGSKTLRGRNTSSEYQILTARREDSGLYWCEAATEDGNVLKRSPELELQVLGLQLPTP
T6 sequence (P08637 17-208 limits assumed): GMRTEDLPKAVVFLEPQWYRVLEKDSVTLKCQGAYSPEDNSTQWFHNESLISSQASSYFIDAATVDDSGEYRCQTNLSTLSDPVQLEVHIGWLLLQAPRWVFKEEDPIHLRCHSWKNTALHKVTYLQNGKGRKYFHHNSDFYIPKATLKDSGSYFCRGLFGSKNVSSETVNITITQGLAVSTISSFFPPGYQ
T9 sequence (P02745 23-245 limits assumed, chain 1 of 3): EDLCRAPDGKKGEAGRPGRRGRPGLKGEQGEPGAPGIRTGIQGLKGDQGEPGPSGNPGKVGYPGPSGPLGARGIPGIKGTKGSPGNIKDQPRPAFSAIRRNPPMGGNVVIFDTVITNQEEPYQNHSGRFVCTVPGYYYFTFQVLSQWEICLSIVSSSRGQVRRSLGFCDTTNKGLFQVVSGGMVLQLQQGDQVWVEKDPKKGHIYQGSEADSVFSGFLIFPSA
T9 sequence (P02746 28-253 limits assumed, chain 2 of 3): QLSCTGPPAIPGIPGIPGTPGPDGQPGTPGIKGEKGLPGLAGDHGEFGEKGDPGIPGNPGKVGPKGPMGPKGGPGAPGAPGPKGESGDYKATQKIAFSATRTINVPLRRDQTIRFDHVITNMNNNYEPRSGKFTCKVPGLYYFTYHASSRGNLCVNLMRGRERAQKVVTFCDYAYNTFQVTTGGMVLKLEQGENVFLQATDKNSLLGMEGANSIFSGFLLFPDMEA
T9 sequence (P02747 29-245 limits assumed, chain 3 of 3): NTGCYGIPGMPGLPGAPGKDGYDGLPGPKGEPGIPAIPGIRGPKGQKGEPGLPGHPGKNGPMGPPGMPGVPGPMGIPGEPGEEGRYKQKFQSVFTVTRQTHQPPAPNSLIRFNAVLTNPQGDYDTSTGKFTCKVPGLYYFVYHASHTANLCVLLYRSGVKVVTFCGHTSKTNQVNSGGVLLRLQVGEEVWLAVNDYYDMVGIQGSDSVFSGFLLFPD
T7 sequence (P08637 17-208 F176V limits assumed): as the sequence (P08637 17-208 limits assumed) above, with F160V counted along it

B1: IgG1-b12-FEAR (antibody, V domains shown)
VH: QVQLVQSGAEVKKPGASVKVSCQASGYRFSNFVIHWVRQAPGQRFEWMGWINPYNGNKEFSAKFQDRVTFTADTSANTAYMELRSLRSADTAVYYCARVGPYSWDDSPQDNYYMDVWGKGTTVIVSS
VL: EIVLTQSPGTLSLSPGERATFSCRSSHSIRSRRVAWYQHKPGQAPRLVIHGVSNRASGISDRFSGSGSGTDFTLTITRVEPEDFALYYCQVYGASSYTFGQGTKLERK
notes: also called ctrl; anti-HIV-gp120 antibody IgG1-b12-FEAR
For B1, the binding result in test [1] and in [2] was “no binding (tested: 10 µg/mL)” each time.

B2: IgG1-CD27-A-P329R-E345R (antibody)
heavy: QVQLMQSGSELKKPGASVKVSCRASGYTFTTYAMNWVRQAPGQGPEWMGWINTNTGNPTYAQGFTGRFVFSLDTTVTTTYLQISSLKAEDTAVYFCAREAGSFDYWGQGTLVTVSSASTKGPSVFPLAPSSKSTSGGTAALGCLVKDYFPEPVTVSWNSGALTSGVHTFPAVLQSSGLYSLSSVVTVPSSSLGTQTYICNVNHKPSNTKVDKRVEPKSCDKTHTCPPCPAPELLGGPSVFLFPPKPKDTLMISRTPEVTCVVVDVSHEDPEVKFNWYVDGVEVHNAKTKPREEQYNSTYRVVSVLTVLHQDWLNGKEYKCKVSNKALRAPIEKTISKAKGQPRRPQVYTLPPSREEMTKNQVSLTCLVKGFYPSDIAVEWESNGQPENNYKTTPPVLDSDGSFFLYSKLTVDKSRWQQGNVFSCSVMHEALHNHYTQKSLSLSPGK
light: QSALTQPASVSGSPGQSITISCTGTSSDVYYYNYVSWYQQHPGRAPKLVIYDVSNRPSGVSNRFSGSKSGNTASLTISGLRAEDEADYYCSSYTVNRVWVFGGGTKLTVLGQPKAAPSVTLFPPSSEELQANKATLVCLISDFYPGAVTVAWKADSSPVKAGVETTTPSKQSNNKYAASSYLSLTPEQWKSHRSYSCQVTHEGSTVEKTVAPTECS
notes: also called IgG1-CD27-A-E345R-P329R
Turning to B2, the binding result in test [3] is on record as “no binding (tested: 10,000 nM)”; in test [4], “no binding (tested: 10,000 nM)”; in [5], “no binding (tested: 10,000 nM)”; in test [6], “no binding (tested: 10,000 nM)”; in test [7] it was “no binding (tested: 10,000 nM)”; in test [10], “binds”. Further, the binding result in test [11] is reported as “no binding (tested: 15 µg/mL)”. Also, the “EC50 (read off the curve)” value in test [8] and in test [9] was about 0.03 µg/mL in each case.

For orientation: EC50 (read off the curve) means the concentration that produces a half-maximal response.
